The values that follow come from IntAct's records for PubMed 17053785.

B1: Partitioning defective 3 homolog (Homo sapiens), Q8TEW0 (parent)
chain: MKVTVCFGRTRVVVPCGDGHMKVFSLIQQAVTRYRKAIAKDPNYWIQVHRLEHGDGGILDLDDILCDVADDKDRLVAVFDEQDPHHGGDGTSASSTGTQSPEIFGSELGTNNVSAFQPYQATSEIEVTPSVLRANMPLHVRRSSDPALIGLSTSVSDSNFSSEEPSRKNPTRWSTTAGFLKQNTAGSPKTCDRKKDENYRSLPRDTSNWSNQFQRDNARSSLSASHPMVGKWLEKQEQDEDGTEEDNSRVEPVGHADTGLEHIPNFSLDDMVKLVEVPNDGGPLGIHVVPFSARGGRTLGLLVKRLEKGGKAEHENLFRENDCIVRINDGDLRNRRFEQAQHMFRQAMRTPIIWFHVVPAANKEQYEQLSQSEKNNYYSSRFSPDSQYIDNRSVNSAGLHTVQRAPRLNHPPEQIDSHSRLPHSAHPSGKPPSAPASAPQNVFSTTVSSGYNTKKIGKRLNIQLKKGTEGLGFSITSRDVTIGGSAPIYVKNILPRGAAIQDGRLKAGDRLIEVNGVDLVGKSQEEVVSLLRSTKMEGTVSLLVFRQEDAFHPRELNAEPSQMQIPKETKAEDEDIVLTPDGTREFLTFEVPLNDSGSAGLGVSVKGNRSKENHADLGIFVKSIINGGAASKDGRLRVNDQLIAVNGESLLGKTNQDAMETLRRSMSTEGNKRGMIQLIVARRISKCNELKSPGSPPGPELPIETALDDRERRISHSLYSGIEGLDESPSRNAALSRIMGESGKYQLSPTVNMPQDDTVIIEDDRLPVLPPHLSDQSSSSSHDDVGFVTADAGTWAKAAISDSADCSLSPDVDPVLAFQREGFGRQSMSEKRTKQFSDASQLDFVKTRKSKSMDLGIADETKLNTVDDQKAGSPSRDVGPSLGLKKSSSLESLQTAVAEVTLNGDIPFHRPRPRIIRGRGCNESFRAAIDKSYDKPAVDDDDEGMETLEEDTEESSRSGRESVSTASDQPSHSLERQMNGNQEKGDKTDRKKDKTGKEKKKDRDKEKDKMKAKKGMLKGLGDMFRFGKHRKDDKIEKTGKIKIQESFTSEEERIRMKQEQERIQAKTREFRERQARERDYAEIQDFHRTFGCDDELMYGGVSSYEGSMALNARPQSPREGHMMDALYAQVKKPRNSKPSPVDSNRSTPSNHDRIQRLRQEFQQAKQDEDVEDRRRTYSFEQPWPNARPATQSGRHSVSVEVQMQRQRQEERESSQQAQRQYSSLPRQSRKNASSVSQDSWEQNYSPGEGFQSAKENPRYSSYQGSRNGYLGGHGFNARVMLETQELLRQEQRRKEQQMKKQPPSEGPSNYDSYKKVQDPSYAPPKGPFRQDVPPSPSQVARLNRLQTPEKGRPFYS

The variants in this test derive from B1. To be noted: with csk_human CSK.
Turning to Y1127F, the “effect of a mutation on the interaction” value is “disrupting interaction”.
